Key:
[1] = test system: diet-induced obese (DIO) mice; experiment: a-Ab treatment of diet-induced obese mice; format: in vivo, mouse
Method: Given the essential role for appropriate beta cell function and insulin secretion in the pathogenesis of diabetes, the pancreata of FABP4 deficient (FABP4^−/−) mice were examined for beta cell mass and insulin content. Animal care and experimental procedures were performed with approval from animal care committees of Harvard University. All mice were housed on a 12-hour light/dark cycle with ad libitum access to chow (PicoLab 5058 LabDiet) and water. FABP4−/− and WT mice were littermates obtained from heterozygous breeding. High fat diet (HFD) fed mice were provided ad libitum access to HFD (60% kcal from fat; Research Diets Inc., D12492i) for 14 weeks beginning at 4 weeks of age. Pancreata and isolated islets were obtained from 7-8-week-old male mice. Blood was collected every other week for 6 hour fasting plasma insulin and FABP4 levels. For acute FABP4 treatment, 10 μg of human recombinant FABP4 (produced in-house) or sterile PBS was injected intraperitoneally. Blood was collected from the tail vein at 0, 10, 20, 30, 60, 120, 240- and 360-minutes post injection for measurement of blood glucose, plasma insulin, and FABP4 levels.
(§1) For the immunohistochemistry, pancreata were dissected and fixed in 10% zinc buffered formalin for 24-48 hrs before being washed and stored in 70% ethanol. Samples were paraffin embedded, and sectioned in steps 250 μm apart. Immunostaining for insulin and glucagon was performed as described previously (Prentice et al., 2014; Rezania et al., 2014). Images of each section were acquired using Aperio Imagescope at 20× magnification. The beta- or alpha-cell area was calculated by using positive pixel count analysis (Aperio ImageScope). Islet number and size was determined by manually circling insulin positive clusters in the Aperio ImageScope software. Two blinded individuals independently performed manual analysis and insulitis scoring.
Antibodies were stored at 4° c. at a stock concentration of 10 mg/ml in PBS. WT diet-induced obese (DIO) male mice were treated twice weekly with 33 mg/kg bodyweight of a-Ab or control antibody (c-Ab) in a final volume of 150 μl, injected subcutaneously for 3 weeks after 12 weeks of high fat breeding, as described (see US20160319003, incorporated herein by reference, and Burak et al., 2015). […] Glucose tolerance test were performed as previously described (Liu, Y. et al. Cell Rep 14, 2889-2900). Briefly, both chow and high fat diet fed mice were evaluated simultaneously. Before intraperitoneal glucose tolerance tests, mice were fasted 16 hr. overnight, before injection of 0.75 g/kg body weight of glucose. Blood glucose was evaluated at 0, 15, 30, 45, 60, 90, and 120-min post-injection.
as §1, with “Pancreata were” for “For the immunohistochemistry, pancreata were”, “for insulin, glucagon, BrdU” for “for insulin”, “and Cleaved Caspase 3” for “and glucagon”

INS1 cells [2] = experiment: ER stress and cell death markers (Western blot, QPCR); format: cell-based, rat; conditions: combined stimulation with complex and ER stress-inducer Tg
Source text: The purinergic P2Y receptors activate two downstream signaling pathways; phospholipase C (PLC), which promotes the generation of IP3, as well as inhibition of cAMP generation through the activation of G proteins (Sabala et al., 2001; Seo et al., 2016). These pathways directly influence calcium flux, which regulates both insulin secretion and survival. To elucidate how the NDPK-ADK/FABP4 complex influences beta cell function to promote diabetes, the intracellular effects mediated by this complex were examined using western blotting and quantitative PCR. Western blotting and quantitative PCR (QPCR) were performed as previously described (Prentice et al., 2018). […] Protein content was evaluated by BCA (Invitrogen, USA). […]
ER calcium homeostasis is essential for a variety of processes and reduced ER calcium can induce ER stress through the accumulation or inappropriate secretion of misprocessed or misfolded proteins (Engin et al., 2014; Engin et al., 2013). […] Cells were treated for 2 hours with increasing doses of Thapsigargin or 18 hours with increasing doses of cytokines (1=TNFα (Peprotech #315-05-20 ug) […], IFNγ (Peprotech #315-01A-20 ug) 100 ng/ml, IL-1β (R&D Systems #401-ML-005) 5 ng/ml), washed with PBS, and cleaved caspase 3/7 activity was determined using the Promega Caspase-Glo 3/7 Assay System, according to manufacturer's instructions.

INS1 cells [3] = test system: INS1 cells
Method: (§2) Cells were pre-treated with P2Y1 activator (0.5 nM; MRS2365 Tocris #2157) during the pre-incubation period. Cells were stimulated with ATP (5 μM; Promega #V915A) or ADP (2.5 μM; Promega #V916A) acutely with the addition of LG and HG KRB during the serial stimulation. Cells were treated with 100 ng/ml recombinant human FABP4 (produced in-house), 200 ng/ml recombinant human ADK (Novus Biologicals, product number NBP1-44382 or R&D Systems, product number 8024-AK-025), or 100 ng/ml recombinant human NDPK-A (Acro Biosystems, product number NM1-H5147) where indicated, for the pre-incubation period, as well as during the glucose stimulation.
(§3) Briefly, INS1 cells were plated in imaging disks at 5000 cells/dish and cultured in standard media overnight. Cells were washed with PBS, and incubated in imaging buffer without glucose, with or without calcium containing Fura-2 AM (2 mM; ThermoFisher F1201) for 30 minutes at 37° C. Cells were washed twice with fresh PBS, and placed in lml imaging buffer. Calcium flux was evaluated with the addition of 20 mM glucose, 30 mM KCl, or 1 μM Thapsigargin. Extracellular calcium was added at 1.5 mM. Calcium flux measurements were performed using an epifluorescence system coupled to a Ti-S/L100 inverted microscope L100 with fluorescent light source (X-Cite 120LED System) equipped with Lambda DG-4 Plus for UV ratiometric probes. Excitations at 340 nm and 380 nm were used and an emission of 510 nm. Analysis was performed using ImageJ software. Calcium flux was measured from 50 cells per coverslip.

INS1 cells [4] = experiment: Cytosolic calcium flux, Fura-2 AM imaging; conditions: 20 mM glucose
Method: as §2, §3

B1: a-Ab: monoclonal antibody previously reported as CA33; heavy chain SEQ ID NO 446, light chain SEQ ID NO 447; binds FABP4 and NDPK (antibody, listed as Homo sapiens)
heavy: QSVEESGGRLVTPGTPLTLTCTVSGFSLSTYYMSWVRQAPGKGLEWIGIIYPSGSTYCASWAKGRFTISKASTTVDLKITSPTTEDTATYFCARPDNDGTSGYLSGFGLWGQGLVTVSSAKTTPPSVYPLAPGSAAQTNSMVTLGCLVKGYFPEPVTVTWNSGSLSSGVHTFPAVLQSDLYTLSSSVTVPSSTWPSETVTCNVAHPASSTKVDKKIVPRDC
light: DVVMTQTPASVSEPVGGTVTIKCGASEDISRYLVWYQQKPGQPPKRLIYKASTLASGVPSRFKGSGSGTDFTLTISDLECDDAATYYCQCTYGTYAGSFFYSFGGGTEVVVERTDAAPTVSIFPPSSEQLTSGGASVVCFLNNFYPKDINVKWKIDGSERQNGVLNSWTDQDSKDCTYSMSSTLTLTKDEYERHNSYTCEATHKTSTSPIVKSFNRNEC
beta cell proliferation, Ki67 staining ([1]; DIO model, three weeks): small but significant increase | CC3 positive beta cells ([1]; DIO model, vs controls): profound reduction | glycemic excursion during glucose tolerance test (GTT) ([1]; WT DIO mice, 33 mg/kg twice weekly s.c.): improved | 6 hr fasting glucose levels ([1]; WT DIO mice, 33 mg/kg twice weekly s.c., three weeks): reduced | beta cell mass ([1]; pancreata of DIO mice, 3 weeks): trend towards increased | number of islets ([1]; pancreata of DIO mice, 3 weeks): increased | glucagon positive area ([1]; pancreatic sections, DIO mice): significant reduction | ER stress markers Chop and Bip (Grp78) (INS1 cells [2]): rescued | ER calcium efflux (INS1 cells [3]): rescue | extracellular calcium influx in response to glucose (INS1 cells [4]): rescue

— US20230203142A1, “TREATMENT OF METABOLIC DISORDERS THROUGH THE TARGETING OF A NOVEL CIRCULATING HORMONE COMPLEX” (The President and Fellows of Harvard College, priority 2020, published 2023)
